Test results published in patent publication US20040001822A1, “Y1-isolated molecules comprising epitopes containing sulfated moieties, antibodies to such epitopes, and uses thereof” (priority 2000, published 2004).

Tests used:
washed platelets = assay: Ristocetin-induced agglutination of washed platelets after preincubation with scFv; format: cell-based, human
Method: Aggregation is determined in PRP due to the presence of thrombotic agents, while agglutination is determined in washed platelets. The effect of Y1 (scFv) on agglutination of washed platelets was tested at various concentrations of Y1. Platelets were pre-incubated with Y1 scFv, Y17 scFv, Y16-scFv, or a control TM-1 scFv for 4 min at 37° C. before being exposed to ristocetin, an inducer of platelet agglutination and aggregation.
Platelet concentrate in acid-citrate-dextrose (ACD) was obtained from a blood bank, platelets were isolated, washed once in buffer containing ACD and saline in a ratio of 1:7. The platelets were centrifuged at 800 g for 10 min after each wash and were resuspended in Tyrodes solution (2 mM MgCl2, 137 mM NaCl, 2.68 mM KCl, 3 mM NaH2PO4, 0.1% glucose, 5 mM Hepes and 0.35% albumin, pH 7.35) and count the number of cells.
For platelet aggregation studies, platelet rich plasma (PRP) and washed platelets were stirred at 500 rpm at 37° C. in whole blood Lumiaggregometer (Chronolog, Havertown,Pa.). The difference in light transmission through the platelet suspension and suspending medium was taken as 100% aggregation. The effect of Y1 on platelet aggregation was evaluated by addition of different concentration of Y1 before the addition of agonist, and the effect was recorded for four minutes.
The effect of Y17-scFv on vWF-dependent agglutination of platelets was tested at different concentrations of Y17.

Glycocalicin (GC) = assay: Western blot with Y1 on enzyme-treated glycocalicin; format: binding, human; details: O-Sialo glycoprotein endopeptidase, 30′ at 37° C.
Text: (§1) Y1 ligand was further characterized using enzymatic treatments with proteases, glycanases, and […]; Western blotting with Y1, anti-CD42 antibodies, anti-CD162 antibodies and 181, immunoprecipitation using Y1 and anti-CD162 antibodies; FACS analysis using Y1 anti-CD162 antibodies; and sequencing.
(§2) The table below summarizes the biochemical experiments preformed to characterize and localize the Y1 binding site on KG-1 cells.
(§3) Western Blot Analysis with Y1 on SDS-PAGE Reducing Gels
(§4) The nitrocellulose membrane was blocked using 5% skim milk for one hour at room temperature. The membrane was then washed 3 times for 5 minutes each with 0.05% Tween 20 in PBS at room temperature. The membrane was incubated with 5 μg/ml Y1-biotin (or 181-biotin) in 2% skim milk in PBS for one hour at room temperature. The membrane was then washed 3 times for 5 minutes each with cold 0.05% Tween 20 in PBS in the cold room (about 4 to about 10° C.). The membrane was then incubated in the cold room with a 1:1000 dilution of SAV-HRP (streptavidin-HRP) (at a final concentration of […]) in 2% skim milk, 0.05% Tween. The dilution was carried out at room temperature (about 25° C.), then the diluted SAV-HRP was cooled on ice for 10-15 minutes before use. The incubation was carried out for 1 hour with gentle shaking. After the incubation with SAV-HRP, the membrane was washed, as above. […]

[1] = molecular target: T1, natural human platelet derived glycocalicin (Homo sapiens, UniProt P07359); assay: Western blot on natural human platelet derived glycocalicin; format: binding; details: semi-purified human platelet derived glycocalicin
T1 construct: glycocalicin (soluble, extracellular fragment of GPIbα); from tissue; host or cells: human platelets
Method: (§5) The DNA fragment encoding for glycocalicin (GC, amino acid 1 to amino acid 493 of GPIbα ) was cloned into an IPTG inducible prokaryotic vector cassette. E. coli (BL21 DE3) cells harboring the newly constructed plasmid were grown at 37° C. to O.D. 0.7-0.8, than at 37° C. for 3 hours for in the presence of IPTG for induction.
(§6) SDS-polyacrylamide gel loaded either with semi-purified human platelet derived glycocalicin (“GC”) or with E. coli cell lysates (“total”) derived from induced and non-induced cells were analyzed. Western blot analysis was performed with biotinylated Y1-scfv, polyclonal rabbit anti-human glycocalicin antibody, commercially available mouse anti-human CD42 monoclonal antibody (SZ2 Immunotech, PM640 Serotec, HIP1 Pharmigen, AN51 DAKO), and polyclonal antibody against the N-terminus of GPIbα (Sc-7071, Santa Cruz).
(§7) The DNA fragment encoding the N-terminal soluble part of human platelet GP1b-glycocalicin (GC, amino acid 1 to amino acid 493) was cloned into an IPTG inducible prokaryotic vector cassette. E. coli (BL21 DE3) cells harboring the newly constructed plasmid were grown at 37° C. to O.D. 0.7-0.8, than at 37° C. for 3 hours for in the presence of IPTG for induction. SDS-polyacrylamide gel loaded either with semi-purified human platelet derived GC or with E. coli cell lysates (total protein content) derived from induced and non-induced cells were analyzed. […]

KG-1 cells = assay: Binding competition of Y1 forms on KG-1 cells; parameters: species or system human; details: Y1 IgG-Biotin 50 ng; Y1 scFvs 5 μg and 10 μg
Text: To compare the binding of the scFv monomer (also referred to as CONY1) with the Y1 dimer, binding competition experiments were done in vitro on KG-1 cells. In addition, these experiments also compared the binding of the full Y1 IgG to the scFv Y1 monomers. To perform this study, a Y1 IgG was labeled with biotin.

[2] = Western blot with Y1 on aryl-sulfatase-treated heparin-BSA; format: binding; details: 18 hr at 22° C.
Text: as §1, §2, §3, §4

[3] = molecular target: T2, recombinant bacterial derived glycocalicin (Homo sapiens, UniProt P07359); assay: Western blot on recombinant glycocalicin expressed in E. coli; format: binding; details: E. coli cell lysates
T2 construct: GC, amino acid 1 to amino acid 493 of GPIbα; made in house; host or cells: E. coli BL21 DE3 (total cell lysate loaded on the gel)
Method: as §5, §6, §7

B1: Y1 scFv: fully human scFv clone binding platelets and myelogenous leukemia cells, SEQ ID NO: 25 (protein, listed as Homo sapiens)
scFv: MKYLLPTAAAGLLLLAAQPAMAEVQLVESGGGVVRPGGSLRLSCAASGFTFDDYGMSWVRQAPGKGLEWVSGINWNGGSTGYADSVKGRFTISRDNAKNSLYLQMNSLRAEDTAVYYCARMRAPVIWGQGTLVTVSRGGGGSGGGGSGGGGSSELTQDPAVSVALGQTVRITCQGDSLRSYYASWYQQKPGQAPVLVIYGKNNRPSGIPDRFSGSSSGNTASLTITGAQAEDEADYYCNSRDSSGNHVVFGGGTKLTVLGAAAEQKLISEEDLNGAA
- % agglutination (washed platelets; scFv 4 μg/ml): 92%
- % inhibition (washed platelets; scFv 4 μg/ml): 8%
- % inhibition (washed platelets; scFv 4 μg/ml, listed as Y1): No inhibition
- % agglutination (washed platelets; scFv 12.5 μg/ml): 67%
- % inhibition (washed platelets; scFv 12.5 μg/ml): 33%
- % inhibition (washed platelets; scFv 12.5 μg/ml, listed as Y1): only partial inhibition
- % agglutination (washed platelets; scFv 25 μg/ml, ristocetin = 100% agglutination): 23%
- Reactivity with Y1 (Glycocalicin (GC)): Enhanced
- recognition in Western blot [1]: recognized
- recognition in Western blot ([1]; listed as scFv Y1): recognized only the natural human derived GC
- competition with Y1 IgG-Biotin (KG-1 cells): partially competed
- Reactivity with Y1 [2]: Binds to
- recognition in Western blot [3]: did not recognize
